Results as given in IntAct's records for PubMed 28712572.

B1: Gamma-aminobutyric acid receptor-associated protein (Homo sapiens), O95166 (parent)
chain: MKFVYKEEHPFEKRRSEGEKIRKKYPDRVPVIVEKAPKARIGDLDKKKYLVPSDLTVGQFYFLIRKRIHLRAEDALFFFVNNVIPPTSATMGQLYQEHHEEDFFLYIAYSDESVYGL

Variants of: B1
Settings: with pcm1_human PCM1, Q15154
Chain of pcm1_human PCM1, Q15154 (Q15154 whole entry): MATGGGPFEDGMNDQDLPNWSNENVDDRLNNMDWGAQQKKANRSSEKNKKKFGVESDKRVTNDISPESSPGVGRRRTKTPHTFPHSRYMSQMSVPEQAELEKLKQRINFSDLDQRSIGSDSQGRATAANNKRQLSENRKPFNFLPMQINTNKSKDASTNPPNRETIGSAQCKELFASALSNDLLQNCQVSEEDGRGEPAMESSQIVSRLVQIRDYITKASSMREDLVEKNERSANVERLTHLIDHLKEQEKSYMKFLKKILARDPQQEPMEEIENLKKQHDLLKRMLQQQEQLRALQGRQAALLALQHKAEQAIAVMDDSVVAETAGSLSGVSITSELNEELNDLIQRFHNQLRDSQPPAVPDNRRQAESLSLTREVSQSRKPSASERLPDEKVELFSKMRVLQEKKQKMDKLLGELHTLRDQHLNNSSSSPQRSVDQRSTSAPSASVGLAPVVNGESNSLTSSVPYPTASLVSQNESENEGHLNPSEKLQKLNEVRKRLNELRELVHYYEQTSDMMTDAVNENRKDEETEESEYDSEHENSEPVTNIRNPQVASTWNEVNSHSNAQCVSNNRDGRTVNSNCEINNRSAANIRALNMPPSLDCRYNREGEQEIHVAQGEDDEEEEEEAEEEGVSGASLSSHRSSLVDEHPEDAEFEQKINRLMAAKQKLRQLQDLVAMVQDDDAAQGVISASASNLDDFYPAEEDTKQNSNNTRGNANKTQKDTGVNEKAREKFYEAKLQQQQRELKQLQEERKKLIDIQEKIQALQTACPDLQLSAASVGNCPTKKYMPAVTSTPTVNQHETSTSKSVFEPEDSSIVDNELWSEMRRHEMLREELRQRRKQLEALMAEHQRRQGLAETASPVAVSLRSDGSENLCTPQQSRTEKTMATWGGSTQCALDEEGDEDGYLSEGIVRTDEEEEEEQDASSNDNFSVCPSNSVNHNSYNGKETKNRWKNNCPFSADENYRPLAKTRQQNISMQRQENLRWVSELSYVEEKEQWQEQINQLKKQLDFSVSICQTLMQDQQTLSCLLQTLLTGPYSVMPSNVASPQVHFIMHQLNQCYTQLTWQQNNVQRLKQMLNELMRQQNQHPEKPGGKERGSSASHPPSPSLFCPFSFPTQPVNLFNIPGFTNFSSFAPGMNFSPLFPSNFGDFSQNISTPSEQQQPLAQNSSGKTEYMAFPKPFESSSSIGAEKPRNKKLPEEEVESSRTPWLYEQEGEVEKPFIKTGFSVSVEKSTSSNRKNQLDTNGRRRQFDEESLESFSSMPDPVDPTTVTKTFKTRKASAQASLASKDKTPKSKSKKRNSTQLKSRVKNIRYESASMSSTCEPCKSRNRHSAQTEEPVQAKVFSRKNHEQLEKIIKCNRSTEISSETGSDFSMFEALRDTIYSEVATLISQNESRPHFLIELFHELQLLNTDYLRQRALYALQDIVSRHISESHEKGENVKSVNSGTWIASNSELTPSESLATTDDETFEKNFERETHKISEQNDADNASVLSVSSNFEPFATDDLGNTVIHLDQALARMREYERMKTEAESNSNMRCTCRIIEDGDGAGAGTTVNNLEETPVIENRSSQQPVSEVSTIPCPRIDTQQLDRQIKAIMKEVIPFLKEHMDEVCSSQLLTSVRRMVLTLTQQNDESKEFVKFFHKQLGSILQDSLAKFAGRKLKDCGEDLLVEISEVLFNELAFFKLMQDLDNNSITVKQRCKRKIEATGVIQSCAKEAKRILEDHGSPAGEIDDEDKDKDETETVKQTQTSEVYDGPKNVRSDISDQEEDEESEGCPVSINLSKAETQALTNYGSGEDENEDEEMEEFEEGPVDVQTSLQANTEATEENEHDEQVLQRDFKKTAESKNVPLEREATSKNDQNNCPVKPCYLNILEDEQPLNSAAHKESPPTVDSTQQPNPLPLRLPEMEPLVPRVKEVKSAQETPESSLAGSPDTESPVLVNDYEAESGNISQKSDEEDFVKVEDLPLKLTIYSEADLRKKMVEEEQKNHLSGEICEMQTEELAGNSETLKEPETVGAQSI

| effect of a mutation on the interaction | Variant |
| --- | --- |
| with no effect | G116A |
